The target in data set [1] is T1, CsBES1.2-MBP (Camellia sinensis (cDNA from cv. …, UniProt UPI0010362774 1-322)).
T1 sequence: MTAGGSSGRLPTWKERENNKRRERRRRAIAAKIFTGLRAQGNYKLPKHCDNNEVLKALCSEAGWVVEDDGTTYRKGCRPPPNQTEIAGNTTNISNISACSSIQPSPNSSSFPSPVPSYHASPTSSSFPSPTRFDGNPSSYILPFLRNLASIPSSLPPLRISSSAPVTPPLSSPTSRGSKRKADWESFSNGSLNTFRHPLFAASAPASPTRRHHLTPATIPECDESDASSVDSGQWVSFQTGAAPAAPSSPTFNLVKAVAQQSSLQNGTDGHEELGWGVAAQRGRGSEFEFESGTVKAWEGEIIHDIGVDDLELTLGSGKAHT
Nature of the data set: EMSA; weaker than P2 E-box probe per text; Beyotime Chemiluminescent EMSA Kit; 6.5% polyacrylamide gel, 60 V 65 min; binding buffer, salt, pH and temperature not stated. To be noted: protein: recombinant; tags: MBP (pMAL-c5x); label: 5' biotin (probe); blunt.

Data set [2] deals with T1, CsBES1.2-MBP. As to the kind of experiment: competition; unlabeled mutant vs biotin-P2 probe; did not outcompete; Beyotime Chemiluminescent EMSA Kit; 6.5% polyacrylamide gel, 60 V 65 min; binding buffer, salt, pH and temperature not stated. To be noted: protein: recombinant; tags: MBP (pMAL-c5x); label: unlabeled; blunt.
Data set [3] deals with T1, CsBES1.2-MBP. Nature of the data set: EMSA; outcompeted by unlabeled probe; stronger than P1 per text; Beyotime Chemiluminescent EMSA Kit; 6.5% polyacrylamide gel, 60 V 65 min; binding buffer, salt, pH and temperature not stated. The following applies: protein: recombinant; tags: MBP (pMAL-c5x); label: 5' biotin (probe); blunt.

B1: CsEXL3 promoter P1 (BRRE-box) probe (dsDNA)
DNA 1: GCGAGGCGACGAGGCGGAGG
DNA 2: CCTCCGCCTCGTCGCCTCGC
Turning to B1, the binding result in data set [1] was “binds”.

B2: Mutant CsEXL3 promoter P2 competitor (dsDNA)
DNA 1: TGAATCCAAAAAATGCAGAACT
DNA 2: AGTTCTGCATTTTTTGGATTCA
Turning to B2, the binding result in data set [2] is on record as “no binding”.

B3: CsEXL3 promoter P2 (E-box) probe (dsDNA)
DNA 1: TGAATCCCACGTGTGCAGAACT
DNA 2: AGTTCTGCACACGTGGGATTCA
For B3, the binding result in data set [3] is listed as “binds”.

The values are drawn from paper PMC11088715, “CsEXL3 regulate mechanical harvest-related droopy leaves under the transcriptional activation of CsBES1.2 in tea plant”.
